Experiments:
[1] = biological target: T1, huCD137-His (recombinant human CD137 with C-terminal polyhistidine tag, R&D Systems) (human, UniProt Q07011 24-186); assay: ELISA, huCD137-His coated, detection anti-NGAL-HRP
T1 construct: also called biotinylated huCD137-His; not shown: C-terminal polyhistidine tag
Method: Recombinant huGPC3 (R&D Systems) at the concentration of 1 μg/mL in PBS was coated overnight on microtiter plates at 4° C. After five washes with 100 μL PBS-0.05% T (PBS supplemented with 0.05% (v/v) Tween 20), the plates were blocked with 2% BSA (w/v) in PBS-0.1% T (PBS-0.1% T-2% BSA) for 1 h at room temperature. After washing with 100 μL PBS-0.05% T (PBS supplemented with 0.05% (v/v) Tween 20) five times, exemplary fusion proteins (SEQ ID NOs: 87 and […] and CD137Ac1-Fusion 1 to 7) or the GPC3 antibody as include in the fusion proteins (SEQ ID NOs: 81 and 82) at different concentrations were added to the wells and incubated for 1 h at room temperature, followed by another wash step. Bound molecules under study were detected by incubation with 1:5000 diluted anti-human IgG Fc-HRP (Jackson Laboratory) in PBS-0.1% T-2% BSA. After an additional wash step, fluorogenic HRP substrate (QuantaBlu, Thermo) was added to each well and the fluorescence intensity was detected using a fluorescence microplate reader.
The same ELISA setup was also employed to determine the binding potency of fusion proteins to cynomolgus GPC3 and huCD137, where recombinant cyGPC3 (R&D Systems) or huCD137-His (recombinant human CD137 with C-terminal polyhistidine tag, R&D Systems) was instead coated on a microtiter plate. The testing agents were similarly titrated and bound agents were detected via anti-NGAL-HRP. […]

[2] = biological target: T2, human GPC3 expressed on cells (SK-Hep1::huGPC3; HepG2, Hep3B and MKN-45 tumor cells) (human, UniProt P51654 25-554); assay: flow cytometry on MKN-45 tumor cells (GPC3 moderate)
T2 construct: whole, on cells; also called GPC3-positive tumor cells; human GPC3-expressing cells
T2 sequence (P51654 25-554 limits assumed): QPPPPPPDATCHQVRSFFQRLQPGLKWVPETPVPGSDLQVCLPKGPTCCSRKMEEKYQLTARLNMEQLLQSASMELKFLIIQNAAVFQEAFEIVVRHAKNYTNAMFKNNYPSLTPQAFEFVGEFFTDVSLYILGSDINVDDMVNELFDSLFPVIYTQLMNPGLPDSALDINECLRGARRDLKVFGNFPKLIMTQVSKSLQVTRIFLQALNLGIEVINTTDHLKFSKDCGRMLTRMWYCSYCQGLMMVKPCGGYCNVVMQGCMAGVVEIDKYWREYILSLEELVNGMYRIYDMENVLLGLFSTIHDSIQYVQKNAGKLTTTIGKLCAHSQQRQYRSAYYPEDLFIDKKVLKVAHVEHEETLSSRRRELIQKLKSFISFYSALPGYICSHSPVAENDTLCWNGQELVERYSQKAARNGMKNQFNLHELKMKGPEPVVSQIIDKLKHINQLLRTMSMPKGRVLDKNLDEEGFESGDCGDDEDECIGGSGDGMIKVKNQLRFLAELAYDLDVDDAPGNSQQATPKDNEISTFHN
Method: (§1) 5×10⁴ cells per well were incubated for 1 h in ice-cold PBS containing 5% fetal calf serum (PBS-FCS). A dilution series of the testing molecule were added to the cells and incubated for 1 h on ice. Cells were washed twice with PBS and then incubated with a goat anti-hlgG Alexa647-labeled antibody or goat anti-hlgG Alexa488-labeled antibody for 30 min on ice. Cells were subsequently washed and analyzed using iQue Flow cytometer (Intellicyte Screener). Mean geometric fluorescent signals were plotted and fitted with Graphpad software. The geometric means of the fluorescence intensity were used to calculate EC₅₀ values using a four-parameter logistic regression with bottom fixed to background.
For flow cytometric analysis, tumor cell lines with different GPC3 expression levels (high to moderate expression: HepG2>Hep3B>MKN-45) and GPC3 negative cell line NCI-N87 were incubated with an exemplary fusion protein SEQ ID NOs: 87 and 82, the GPC3 antibody or the CD137 specific lipocalin mutein (Fc fusion) as included in the fusion protein (SEQ ID NOs: 81 and 82 and SEQ ID NO: 98, respectively), a reference CD137 antibody SEQ ID NOs: 26 and 27, or an isotype control (SEQ ID NO: 24 and 25), and detected using a fluorescently labeled anti-human IgG antibody as described in Example 6.

[3] = biological target: T2, human GPC3 expressed on cells …; assay: flow cytometry on SK-Hep1::huGPC3 cells, anti-human IgG detection
Method: (§2) For flow cytometric analysis, respective cell lines were incubated with an exemplary fusion protein (SEQ ID NOs: 87 and 82), the GPC3 antibody or the CD137 specific lipocalin mutein (Fc fusion) as included in the fusion protein (SEQ ID NOs: 81 and 82 and SEQ ID NO: 98, respectively), a reference CD137 antibody SEQ ID NOs: 26 and 27, or an isotype control (SEQ ID NOs: 24 and 25) and detected using a fluorescently labeled anti-human IgG antibody in FACS analysis as described in the following:
as §1

[4] = biological target: T3, recombinant human GPC3 (huGPC3) (R&D Systems) (human, UniProt P51654 25-559); assay: dual-binding ELISA: huGPC3 coated, fusion titrated, detection with biotinylated huCD137-His
T3 construct: also called biotinylated huGPC3
T3 sequence (P51654 25-559 limits assumed): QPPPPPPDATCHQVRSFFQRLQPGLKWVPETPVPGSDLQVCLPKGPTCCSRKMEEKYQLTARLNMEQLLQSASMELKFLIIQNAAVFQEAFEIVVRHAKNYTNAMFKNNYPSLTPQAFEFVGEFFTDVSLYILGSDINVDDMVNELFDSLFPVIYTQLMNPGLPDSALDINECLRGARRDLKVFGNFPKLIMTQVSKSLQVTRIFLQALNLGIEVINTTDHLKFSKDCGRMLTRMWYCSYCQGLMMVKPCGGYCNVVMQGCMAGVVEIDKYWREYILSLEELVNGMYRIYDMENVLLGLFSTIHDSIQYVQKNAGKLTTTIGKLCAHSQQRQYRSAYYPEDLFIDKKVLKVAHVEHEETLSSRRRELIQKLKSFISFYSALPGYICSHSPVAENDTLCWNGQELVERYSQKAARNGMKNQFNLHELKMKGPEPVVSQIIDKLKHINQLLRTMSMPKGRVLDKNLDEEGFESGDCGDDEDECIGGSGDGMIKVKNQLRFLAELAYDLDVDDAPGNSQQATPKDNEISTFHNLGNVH
Method: Recombinant huCD137-His (R&D Systems) in PBS (1 μg/mL) was coated overnight on microtiter plates at 4° C. The plates were washed five times after each incubation step with 100 μL PBS-0.05% T. The plates were blocked with PBS-0.1% T-2% BSA for 1 h at room temperature and subsequently washed again. Different concentrations of tested fusion proteins were added to the wells and incubated for 1 h at room temperature, followed by a wash step. Subsequently, biotinylated huGPC3 was added at a constant concentration of 1 μg/mL in PBS-0.1% T-2% BSA for 1 h. After washing, a 1:5000 dilution of ExtrAvidin-HRP (Sigma-Aldrich) in PBS-0.1% T-2% BSA was added to the wells and incubated for 1 h. After an additional wash step, fluorogenic HRP substrate (QuantaBlu, Thermo) was added to each well, and the fluorescence intensity was detected using a fluorescence microplate reader.
The dual binding of fusion proteins was also tested with a reverse set-up where recombinant huGPC3 (R&D Systems) was coated on microtiter plates at 1 μg/ml and the bound fusion proteins were detected via the addition of 5 μg/mL biotinylated huCD137-His.
Exemplary dual binding data are shown in FIG. 3, together with the fit curves resulting from a 1:1 sigmoidal binding fit, where the EC₅₀ value and the maximum signal were free parameters, and the slope was fixed to unity.

[5] = biological target: T4, human CD137 expressed on cells (Flp-In-CHO::huCD137; NFkB-luc2/CD137 Jurkat cells) (human, UniProt Q07011 24-255); assay: flow cytometry, CHO cells transfected with human CD137, detection labelled anti-human IgG, GeoMean BL1-H [lower graph]
T4 construct: whole, on cells; also called human CD137-expressing cells
T4 sequence (Q07011 24-255): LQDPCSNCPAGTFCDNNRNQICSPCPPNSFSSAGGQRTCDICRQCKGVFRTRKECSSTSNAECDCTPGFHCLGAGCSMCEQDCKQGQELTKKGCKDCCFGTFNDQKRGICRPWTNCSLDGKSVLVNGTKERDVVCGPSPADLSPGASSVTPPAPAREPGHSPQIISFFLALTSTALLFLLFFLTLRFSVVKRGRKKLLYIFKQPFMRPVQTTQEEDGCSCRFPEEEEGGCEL
Method: as §2, §1

[6] = biological target: T2, human GPC3 expressed on cells …; assay: flow cytometry, SK-Hep1 cells transfected with human GPC3, detection labelled anti-human IgG, GeoMean RL1-H [upper graph]
Method: as §2, §1

B1: fusion protein SEQ ID NOs: 87 and 82 (bispecific antibody, human IgG4 S228P, kappa, F234A L235A)
heavy: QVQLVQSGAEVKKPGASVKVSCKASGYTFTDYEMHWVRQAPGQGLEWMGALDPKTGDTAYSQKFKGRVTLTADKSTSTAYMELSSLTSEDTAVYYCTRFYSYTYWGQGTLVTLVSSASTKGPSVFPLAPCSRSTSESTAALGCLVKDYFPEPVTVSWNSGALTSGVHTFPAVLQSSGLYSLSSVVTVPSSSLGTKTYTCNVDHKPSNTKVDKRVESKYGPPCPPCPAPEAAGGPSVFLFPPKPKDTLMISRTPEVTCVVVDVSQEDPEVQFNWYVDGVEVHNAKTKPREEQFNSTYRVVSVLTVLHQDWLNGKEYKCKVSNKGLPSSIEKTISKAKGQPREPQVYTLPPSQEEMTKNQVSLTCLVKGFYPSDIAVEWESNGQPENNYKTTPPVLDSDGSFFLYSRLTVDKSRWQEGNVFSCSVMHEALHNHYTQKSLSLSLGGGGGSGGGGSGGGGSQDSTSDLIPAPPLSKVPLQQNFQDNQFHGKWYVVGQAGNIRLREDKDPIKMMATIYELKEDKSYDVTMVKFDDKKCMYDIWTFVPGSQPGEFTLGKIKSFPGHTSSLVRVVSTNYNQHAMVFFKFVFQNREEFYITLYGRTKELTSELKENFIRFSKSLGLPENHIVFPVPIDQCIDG
light: DVVMTQSPLSLPVTPGEPASISCRSSQSLVHSNRNTYLHWYLQKPGQSPQLLIYKVSNRFSGVPDRFSGSGSGTDFTLKISRVEAEDVGVYYCSQNTHVPPTFGQGTKLEIKRTVAAPSVFIFPPSDEQLKSGTASVVCLLNNFYPREAKVQWKVDNALQSGNSQESVTEQDSKDSTYSLSSTLTLSKADYEKHKVYACEVTHQGLSSPVTKSFNRGEC
notes: also called exemplary fusion protein
- EC50 [1]: 0.52 nM
- EC50 [2]: 2.59 nM
- EC50 [3]: 23.2 nM
- EC50 [4]: 0.98 nM
- EC50 (read off the curve) [5]: ~20 nM
- EC50 (read off the curve) [6]: ~5 nM

Source: patent publication US20220153864A1 (Pieris, published 2022)
